Consider two molecules from US20160083473A1 (NUMAB THERAPEUTICS, published 2016).

The target in experiment [1] is T1, mouse IL23R Fc chimera (R&D Systems, Cat. No. 1686-MR-050) (mouse, UniProt Q8K4B4 24-372).
T1 construct: bought; Fc part of the bought chimera not given
T1 sequence (looked up): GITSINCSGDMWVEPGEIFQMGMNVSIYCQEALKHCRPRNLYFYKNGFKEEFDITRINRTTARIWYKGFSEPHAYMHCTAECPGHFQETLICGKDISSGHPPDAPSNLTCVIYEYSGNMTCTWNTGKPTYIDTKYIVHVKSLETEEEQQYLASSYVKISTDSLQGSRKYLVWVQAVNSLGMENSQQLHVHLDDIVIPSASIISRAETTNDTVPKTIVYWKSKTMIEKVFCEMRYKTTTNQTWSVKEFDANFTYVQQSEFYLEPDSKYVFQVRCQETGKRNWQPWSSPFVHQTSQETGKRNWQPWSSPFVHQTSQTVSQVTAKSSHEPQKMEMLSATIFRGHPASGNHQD
Kind of experiment: SPR, IL23R Fc chimera captured by anti-human IgG Fc, scFv injected. The protocol:
(§1) Binding affinities of anti-IL23R scFvs were measured by surface plasmon resonance (SPR) using a MASS-1 SPR instrument (Sierra Sensors). […] After immobilization, 1 ug/ml recombinant human IL23R Fc chimera (R&D Systems, Cat. No. 1400-IR-050) was captured by the anti-human IgG antibody while a second immobilized channel served as a control where the capture was replaced by buffer. Two-fold serial dilutions of human scFvs ranging from 180 to 2.81 nM were injected into both flow cells for 3 min and dissociation of the scFvs from the chimera on the sensor chip was allowed to proceed for 700 sec. After each injection cycle, surfaces were regenerated with two 1 min injections of 10 mM glycine-HCl pH 1.5. In a similar manner the affinities for cynomolgus and mouse IL23R Fc chimera (R&D Systems, Cat. No. 1686-MR-050) was measured. The apparent dissociation (kd) and association (ka) rate constants and the apparent dissociation equilibrium constant (KD) were calculated with the MASS-1 analysis software (Analyzer, Sierra Sensors) using one-to-one Langmuir binding model.

In experiment [2] the target is T2, recombinant human IL23R Fc chimera (R&D Systems, Cat. No. 1400-IR-050) (human, UniProt Q5VWK5 24-353).
T2 construct: bought
The experiment is described as above. The protocol: as §1

In experiment [3] the target is T3, cynomolgus IL23R Fc chimera (cynomolgus monkey, UniProt G7NWY5 24-353).
T3 construct: source of the cynomolgus chimera is not clearly stated; also called cyno IL23R; not shown: Fc part of the chimera
T3 sequence: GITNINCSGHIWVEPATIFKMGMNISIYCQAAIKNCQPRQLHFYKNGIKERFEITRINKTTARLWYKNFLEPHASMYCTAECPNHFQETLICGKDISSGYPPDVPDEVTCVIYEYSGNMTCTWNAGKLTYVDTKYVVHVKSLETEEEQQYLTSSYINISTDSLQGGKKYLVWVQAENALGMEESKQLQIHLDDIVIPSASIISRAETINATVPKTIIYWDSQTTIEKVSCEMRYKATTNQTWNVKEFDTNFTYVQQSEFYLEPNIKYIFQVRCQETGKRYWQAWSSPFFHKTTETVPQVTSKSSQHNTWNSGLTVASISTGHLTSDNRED
The description is as above. The protocol: as §1

Experiment [4] addresses T4, human heterodimeric single-chain CD3γδ extracellular domain (produced in-house) (human).
T4 chain 1: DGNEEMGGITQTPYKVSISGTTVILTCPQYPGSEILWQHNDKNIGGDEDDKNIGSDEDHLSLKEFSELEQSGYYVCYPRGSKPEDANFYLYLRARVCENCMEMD
T4 chain 2: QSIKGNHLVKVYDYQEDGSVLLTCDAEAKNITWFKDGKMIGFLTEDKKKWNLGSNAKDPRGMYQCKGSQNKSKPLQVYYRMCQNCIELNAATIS
Kind of experiment: SPR, human single-chain CD3 ECD immobilised by amine coupling, scDb injected.

B1: humanized anti-IL23R scFv 14-11-D07-sc01 (scFv, V domains shown)
VH: EVQLVESGGGLVQPGGSLRLSCAASGIDFNSNYYMCWVRQAPGKGLEWIGCIYVGSHVNTYYANWAKGRFTISRDNSKNTVYLQMNSLRAEDTAVYYCATSGSSVLYFKFWGQGTLVTVSS
VL: DIQMTQSPSSLSASVGDRVTITCQASENIYSFLAWYQQKPGKAPKLLIYSASKLAAGVPSRFSGSGSGTDFTLTISSLQPEDFATYYCQQTNRYSNPDIYNVFGQGTKLTVLG
notes: tested as a single-chain Fv; CDR graft on a Vk1/VH3 human acceptor framework
For the molecule B1, in experiment [1], the dissociation constant (Kd) is 2.21 nM, the off-rate constant (koff) amounted to 0.00418 s⁻¹ and the kon is 1.89e+06 M⁻¹ s⁻¹. Moreover, in experiment [2], the Kd amounted to 0.116 nM, the koff is 0.000259 s⁻¹ and the kon is 2.24e+06 M⁻¹ s⁻¹. In experiment [3], this molecule displayed a Kd of 0.124 nM, a koff of 0.000361 s⁻¹ and a kon of 2.92e+06 M⁻¹ s⁻¹.

B2: PRO165, bispecific anti-IL23R x CD3ε single-chain diabody (bispecific antibody)
chain: DIQMTQSPSSLSASVGDRVTITCQASENIYSFLAWYQQKPGKAPKLLIYSASKLAAGVPSRFSGSGSGTDFTLTISSLQPEDFATYYCQQTNRYSNPDIYNVFGQGTKLTVLGGGGGSEVQLVESGGGLVQPGGSLRLSCAASGFPLSSYAMIWVRQAPGKGLEWIGMILRAGNIYYASWVKGRFTISRDNSKNTVYLQMNSLRAEDTAVYYCARRHYNREGYPIGIGDLWGQGTLVTVSSGGGGSGGGGSGGGGSGGGGSDIQMTQSPSSLSASVGDRVTITCQSSESVYNNKRLSWYQQKPGKAPKLLIYTASSLASGVPSRFSGSGSGTDFTLTISSLQPEDFATYYCQGEFTCSNADCFTFGQGTKLTVLGGGGGSEVQLVESGGGLVQPGGSLRLSCAASGIDFNSNYYMCWVRQAPGKGLEWIGCIYVGSHVNTYYANWAKGRFTISRDNSKNTVYLQMNSLRAEDTAVYYCATSGSSVLYFKFWGQGTLVTVSS
notes: VL(anti-IL23R 14-11-D07-sc01)-G4S-VH(anti-CD3 clone 6)-(G4S)4-VL(anti-CD3 clone 6)-G4S-VH(anti-IL23R 14-11-D07-sc01); also called scDb
B2: in experiment [4], the Kd came out at 11.6 nM, the dissociation rate constant (koff) worked out at 0.00126 s⁻¹ and the kon came to 109000 M⁻¹ s⁻¹.
